Experimental data as given in patent publication US20250188179A1 (ADAGENE PTE, published 2025).

T1: His-tagged recombinant human FcγRIIb (human, UniProt P31994 46-217, limits assumed)
T1 construct: His-tagged; also called hFcγRIIb
T1 sequence (looked up): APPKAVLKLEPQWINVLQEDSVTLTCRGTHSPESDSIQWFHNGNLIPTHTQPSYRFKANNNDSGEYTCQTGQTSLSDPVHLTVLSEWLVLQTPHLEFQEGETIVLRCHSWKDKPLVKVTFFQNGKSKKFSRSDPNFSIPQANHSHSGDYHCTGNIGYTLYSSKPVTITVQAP

T2: His-tagged recombinant human FcγRIIa (human, UniProt P12318 36-218, limits assumed)
T2 construct: His-tagged; also called hFcγRIIa
T2 sequence (looked up): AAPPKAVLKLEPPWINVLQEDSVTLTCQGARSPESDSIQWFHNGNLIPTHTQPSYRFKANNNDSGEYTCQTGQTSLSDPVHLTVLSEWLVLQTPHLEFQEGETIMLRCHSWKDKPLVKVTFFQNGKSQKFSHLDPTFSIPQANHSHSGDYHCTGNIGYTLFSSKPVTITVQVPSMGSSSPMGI


Legend:
[1] = target: T3, full-length human CD137 with C-terminal 3xMyc tag displayed on yeast cells (human, UniProt Q07011 24-255); assay: FACS titration on yeast displaying full-length hCD137-3xMyc, no protease; data batch 4
T3 construct: whole, on cells; not used; also called hCD137; not shown: C-terminal 3xMyc tag

[2] = target: T4, hCD137 (antigen of the ELISA and FACS assays of Example 2) (human, UniProt Q07011 24-186, limits assumed); assay: ELISA on hCD137, absorbance at 450 nm; masked antibody without MMP9 treatment
T4 construct: also called human CD137

[3] = target: T3, full-length human CD137 with C-terminal …; assay: KD divided by KD of parental antibody (TY21242 or TY23310); FACS on yeast hCD137; data batch 4
[4] = target: T1, His-tagged recombinant human FcγRIIb; assay: BLI (Fortebio), His-tagged FcγR captured on anti-Penta-His sensor, antibody in solution, steady state analysis
[5] = target: T2, His-tagged recombinant human FcγRIIa; assay: as above
[6] = target: T4, hCD137 (antigen of the ELISA and FACS …); assay: FACS KD relative to parental antibody TY24122
[7] = target: T4, hCD137 (antigen of the ELISA and FACS …); assay: ELISA EC50 relative to parental antibody TY24122
[8] = target: T4, hCD137 (antigen of the ELISA and FACS …); assay: FACS-based assay on hCD137
[9] = target: T4, hCD137 (antigen of the ELISA and FACS …); assay: ELISA on hCD137

T3 sequence (Q07011 24-255): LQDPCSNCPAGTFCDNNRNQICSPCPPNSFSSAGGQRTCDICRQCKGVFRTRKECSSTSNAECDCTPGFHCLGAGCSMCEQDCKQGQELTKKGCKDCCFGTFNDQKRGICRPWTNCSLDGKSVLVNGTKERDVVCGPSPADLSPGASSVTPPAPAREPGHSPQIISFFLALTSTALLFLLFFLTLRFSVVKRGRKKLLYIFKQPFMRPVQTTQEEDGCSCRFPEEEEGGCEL

Binder | Kd [1] [nM] | EC50 (read off the curve) [2] [nM] | Masking efficiency [3] [fold] | Kd [4] [nM] | Kd [5] [nM] | Masking efficiency [6] [fold] | Masking efficiency [7] [fold] | Kd [8] [nM] | EC50 [9] [nM]
TY25366 (antibody, human IgG4 S228P, kappa, also called untreated TY25366) heavy: EVQLVESGGGLVQPGGSLRLSCAASGFSLSTGGVGVGWIRQAPGKGLEWLALIDWADDKYYSPSLKSRLTISRDNSKNTLYLQLNSLRAEDTAVYYCARGGSDTVIGDWFAYWGQGTLVTVSSASTKGPSVFPLAPCSRSTSESTAALGCLVKDYFPEPVTVSWNSGALTSGVHTFPAVLQSSGLYSLSSVVTVPSSSLGTKTYTCNVDHKPSNTKVDKRVESKYGPPCPPCPAPEFLGGPSVFLFPPKPKDTLMISRTPEVTCVVVDVEQEDPEVQFNWYVDGVEVHNAKTKPREEQFNSTYRVVSVLTVLHQDWLNGKEYKCKVSNKGFPSSIEKTISKAKGQPREPQVYTLPPSQEEMTKNQVSLTCLVKGFYPSDIAVEWESNGQPENNYKTTPPVLDSDGSFFLYSRLTVDKSRWQEGNVFSCSVMHEALHNHYTQKSLSLSLGK light: not shown | 64.6 | ~10 | 324 |  |  |  |  |  | 
TY24122 (antibody, human IgG4 S228P, kappa) heavy: EVQLVESGGGLVQPGGSLRLSCAASGFSLSTGGVGVGWIRQAPGKGLEWLALIDWADDKYYSPSLKSRLTISRDNSKNTLYLQLNSLRAEDTAVYYCARGGSDTVIGDWFAYWGQGTLVTVSSASTKGPSVFPLAPCSRSTSESTAALGCLVKDYFPEPVTVSWNSGALTSGVHTFPAVLQSSGLYSLSSVVTVPSSSLGTKTYTCNVDHKPSNTKVDKRVESKYGPPCPPCPAPEFLGGPSVFLFPPKPKDTLMISRTPEVTCVVVDVEQEDPEVQFNWYVDGVEVHNAKTKPREEQFNSTYRVVSVLTVLHQDWLNGKEYKCKVSNKGFPSSIEKTISKAKGQPREPQVYTLPPSQEEMTKNQVSLTCLVKGFYPSDIAVEWESNGQPENNYKTTPPVLDSDGSFFLYSRLTVDKSRWQEGNVFSCSVMHEALHNHYTQKSLSLSLGK light: not shown |  |  |  | 5.06 | 5.85 | 1 | 1 | 0.141 | 0.31
